According to US20250281611A1 (BIOSCEPTRE AUST, published 2025):

B1: CD33 BRIDGE variant B25 (Fab, V domains shown)
VH: QVQLVQSGAEVKKPGSSVKVSCKASGYTFTDYNMHWVRQAPGQGLEWIGYIYPYNGGTGYNQKFKSKATITADESTNTAYMELSSLRSEDTAVYYCARGRPAMDYWGQGTLVTVSS
VL: DIQMTQSPSSLSASVGDRVTITCRASESVDNYGISFMNWFQQKPGKAPKLLIYAASNQGSGVPSRFSGSGSGTDFTLTISSLQPDDFATYYCQQSKEVPWTFGQGTKVEIKR
notes: Lintuzumab-based Fab bridging molecule
B2: CD33 BRIDGE variant B26 (Fab, V domains shown)
VH: QVQLVQSGAEVKKPGSSVKVSCKASGYTFTDYNMHWVRQAPGQGLEWIGYIYPYNGGTGYNQKFKSKATITADESTNTAYMELSSLRSEDTAVYYCARGRPAMDYWGQGTLVTVSS
VL: DIQMTQSPSSLSASVGDRVTITCRASESVDNYGISFMNWFQQKPGKAPKLLIYAASNQGSGVPSRFSGSGSGTDFTLTISSLQPDDFATYYCQQSKEVPWTFGQGTKVEIKR
notes: as for B1
B3: CD33 BRIDGE variant B21 (Fab)
light: DFPGHNYTTRNILPGLNITSGGGGSEPKSSDKTHTDIQMTQSPSSLSASVGDRVTITCRASESVDNYGISFMNWFQQKPGKAPKLLIYAASNQGSGVPSRFSGSGSGTDFTLTISSLQPDDFATYYCQQSKEVPWTFGQGTKVEIKRTVAAPSVFIFPPSDEQLKSGTASVVCLLNNFYPREAKVQWKVDNALQSGNSQESVTEQDSKDSTYSLSSTLTLSKADYEKHKVYACEVTHQGLSSPVTKSFNRGECHHHHHH
heavy: QVQLVQSGAEVKKPGSSVKVSCKASGYTFTDYNMHWVRQAPGQGLEWIGYIYPYNGGTGYNQKFKSKATITADESTNTAYMELSSLRSEDTAVYYCARGRPAMDYWGQGTLVTVSSASTKGPSVFPLAPSSKSTSGGTAALGCLVKDYFPEPVTVSWNSGALTSGVHTFPAVLQSSGLYSLSSVVTVPSSSLGTQTYICNVNHKPSNTKVDKKVEPKSCHHHHHH
notes: as for B1
B4: CD33 BRIDGE variant B22 (Fab)
light: DFPGHNYTTRNILPGLNITSTFHKTSGSGKEPKSSDKTHTDIQMTQSPSSLSASVGDRVTITCRASESVDNYGISFMNWFQQKPGKAPKLLIYAASNQGSGVPSRFSGSGSGTDFTLTISSLQPDDFATYYCQQSKEVPWTFGQGTKVEIKRTVAAPSVFIFPPSDEQLKSGTASVVCLLNNFYPREAKVQWKVDNALQSGNSQESVTEQDSKDSTYSLSSTLTLSKADYEKHKVYACEVTHQGLSSPVTKSFNRGECHHHHHH
heavy: QVQLVQSGAEVKKPGSSVKVSCKASGYTFTDYNMHWVRQAPGQGLEWIGYIYPYNGGTGYNQKFKSKATITADESTNTAYMELSSLRSEDTAVYYCARGRPAMDYWGQGTLVTVSSASTKGPSVFPLAPSSKSTSGGTAALGCLVKDYFPEPVTVSWNSGALTSGVHTFPAVLQSSGLYSLSSVVTVPSSSLGTQTYICNVNHKPSNTKVDKKVEPKSCHHHHHH
notes: as for B1

What was measured:
[1] = target: T1, nfP2X7 CAR 1; assay: flow cytometry, CAR T cells, anti-His-FITC, EGFR+ MFI over background 0.4
T1 construct: Expressed on T cells with truncated EGFR as marker gene; also called anti-nfP2X7 receptor CAR 1; nfP2X7 targeted CAR on EGFR+ T cells
Description: (§1) nfP2X₇ CAR T cells were incubated with different BRiDGE variants at saturating concentrations. […] The MFI intensity correlates with the number of secondary bound antibodies bound to the BRiDGEs that are only detected if they are bound to the CAR T cells. EGFR was used as a marker gene to detect the CAR expression. Thus, the EGFR+ T cell population was defined as the CAR expressing cells and the EGFR− T cell population was defined as the CAR negative subset. MFI: median fluorescence intensity. EGFR: epidermal growth factor receptor. BLItz: Bio-Layer interferometry (BLI) technology using HIS-tag identification tips. HIS-tag MFI Ratio: relative index that is calculated by the testing condition MFI divided by the control MFI, which corresponds to the MFI measured on EGFR+ T cells (defined as CAR positive cells) divided by the MFI measured on the EGFR− T cells (defined as CAR negative cells). […] The higher the MFIR, the stronger the binding.

[2] = target: T2, CD33 (UniProt P20138 18-364, limits assumed); assay: flow cytometry, MOLM-13 cells, anti-His-FITC detection
T2 construct: whole, on cells; also called Siglec-3; CD33 on MOLM-13 cells
T2 sequence (P20138 18-364 limits assumed): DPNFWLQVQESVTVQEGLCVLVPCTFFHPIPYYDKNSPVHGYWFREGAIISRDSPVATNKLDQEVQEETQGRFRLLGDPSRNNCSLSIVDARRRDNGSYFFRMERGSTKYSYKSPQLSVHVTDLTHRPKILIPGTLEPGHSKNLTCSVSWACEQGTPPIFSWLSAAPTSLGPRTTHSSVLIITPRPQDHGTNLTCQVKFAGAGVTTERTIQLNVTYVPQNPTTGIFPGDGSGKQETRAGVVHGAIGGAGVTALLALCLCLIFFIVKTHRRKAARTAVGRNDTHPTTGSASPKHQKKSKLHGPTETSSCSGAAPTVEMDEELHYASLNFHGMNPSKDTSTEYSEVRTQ
Description: (§2) MOLM-13 cells were incubated with different CD33 BRIDGE variants at saturating concentrations. […] The MFI intensity correlates with the number of secondary antibodies bound to the CD33 BRIDGE variants that are only detected if they are bound to the MOLM-13 cells. MFI: median fluorescence intensity. BLItz: Bio-Layer interferometry (BLI) technology using HIS-tag identification tips. […] The higher the MFIR, the stronger the binding.

[3] = target: T2, CD33; assay: flow cytometry, MOLM-13 cells, anti-His-FITC detection, ratio to no bridge
Description: as §2

[4] = target: T1, nfP2X7 CAR 1; assay: flow cytometry, nfP2X7 CAR T cells (EGFR+), anti-His-FITC detection
Description: as §1

[5] = target: T1, nfP2X7 CAR 1; assay: flow cytometry, CAR T cells, anti-His-FITC, EGFR+ over EGFR- cells
Description: as §1

| Binder | HisTag MFI Ratio (background 0.4) [1] | MFI HisTag FITC [2] | MFIR HisTag FITC [3] | MFI HisTag FITC in EGFR+ Population [4] | HisTag MFI Ratio of EGFR+/EGFR- [5] |
| --- | --- | --- | --- | --- | --- |
| B1 | 4.6 | 7.29 | 10.9 | 1.82 | 3.4 |
| B2 | 3.1 | 5.75 | 8.58 | 1.22 | 2.8 |
| B3 | 2.9 | 6.04 | 9.01 | 1.14 | 2.8 |
| B4 | 3.6 | 4.61 | 6.88 | 1.44 | 3.1 |
